According to paper PMC12948236:

What was measured:
thrombin [1] = molecular target: T1, thrombin (UniProt P00734;P00734 328-363;364-622); assay: AFM imaging / C-AFM; monovalent anchoring; Na+ samples: 140 mM NaCl, 40 mM Tris-acetic acid, 1 mM EDTA, 12.5 mM MgCl2, 5 mM KCl; specificity tests 5 nM origami, 100 nM protein; imaging buffer, pH and tem
thrombin [2] = molecular target: T1, thrombin; assay: AFM imaging; 5 nM origami, 100 nM thrombin; empty:filled cavities 25:0; Na+ samples: 140 mM NaCl, 40 mM Tris-acetic acid, 1 mM EDTA, 12.5 mM MgCl2, 5 mM KCl; specificity tests 5 nM origami, 100 nM protein; imaging buffer, pH and tem

Binder	binding result (thrombin [1])	binding result (thrombin [2])
DNA origami with TBA15 only (20-TBA15) (mixed, 3'-C3-S-S-C3 on edge staples; none on aptamer strand) DNA: CATCTGACCTCTGTGCTGCTTTTTGGTTGGTGTGGTTGGTTTTTTCACGGTAGCACGCATAGG	binds	–
DNA origami with four SA aptamers (20-SAA1) (mixed, 3'-C3-S-S-C3 on edge staples (gold samples); none on aptamer strand) DNA: TGAATCTAACGGTGCGTATCTTTTTCTGTGAGACGACGCACCGTCGCAGGTTTTGTCTCACAGTTTTGTACCTCGGAGACCAAGTAG	–	no binding
